Assay results: patent US20250377350A1

Target: NY-ESO-1 157-165 peptide … presented on HLA-A*0201 (human)
Experiment: cell-based or functional assay

TCR1G4 (specific for the NY-ESO-1 157-165 … antigen), displayed on TnT cells
mRuby2 (STAT5-mRuby2 reporter) expression in peptide-pulsed ACDC-HLA cells after co-culture with TnT-TCR1G4 cells: 29%
mRuby2+ cells of the monoclonal ACDC-HLA (A*0201) line (Clone 3, …-pulsed) after co-culture with TnT-TCR1G4 cells: 46.7%
